Here are results for 20 sequences from a protein production outcome set (Wang et al. 2014).

The nature of the series: label from the status in PepcDB records.
As to “MVKQGVFMKTDQSKVKKLSDYKSLDYFVIHVDLQIDLSKKPVESKARLTVVPNLNVDSHSNDLVLDGENMTLVSLQMNDNLLKENEYELTKDSLIIKNIPQNTPFTIEMTSLLGENTDLFGLYETEGVALVKAESEGLRRVFYLPDRPDNLATYKTTIIANQEDYPVLLSNGVLIEKKELPLGLHSVTWLDDVPKPSYLFALVAGNLQRSVTYYQTKSGRELPIEFYVPPSATSKCDFAKEVLKEAMAWDERTFNLECALRQHMVAGVDKYASGASEPTGLNLFNTENLFASPETKTDLGILRVLEVVAHEFFHYWSGDRVTIRDWFNLPLKEGLTTFRAAMFREELFGTDLIRLLDGKNLDERAPRQSAYTAVRSLYTAAAYEKSADIFRMMMLFIGKEPFIEAVAKFFKDNDGGAVTLEDFIESISNSSGKDLRSFLSWFTESGIPELIVTDELNPDTKQYFLKIKTVNGRNRPIPILMGLLDSSGAEIVADKLLIVDQEEIEFQFENIQTRPIPSLLRSFSAPVHMKYEYSYQDLLLLMQFDTNLYNRCEAAKQLISALINDFCIGKKIELSPQFFAVYKALLSDNSLNEWMLAELITLPSLEELIENQDKPDFEKLNEGRQLIQNALANELKTDFYNLLFRIQISGDDDKQKLKGFDLKQAGLRRLKSVCFSYLLNVDFEKTKEKLILQFEDALGKNMTETALALSMLCEINCEEADVALEDYYHYWKNDPGAVNNWFSIQALAHSPDVIERVKKLMRHGDFDLSNPNKVYALLGSFIKNPFGFHSVTGEGYQLVADAIFDLDKINPTLAANLTEKFTYWDKYDVNRQAMMISTLKIIYSNATSSDVRTMAKKGLDKVKEDLPLPIHLTFHGGSTMQDRTAQLIADGNKENAYQLH”, the protein production entry is “failed”. For “EGALPKASEATVCANNSKVSSPGEKVVLWTREADRVILTMCQEQGAQPHTFSVISQQLGNKTPVEVSHRFRELMQLFHTACE” the value was “not failed”; for “MRVAVAGGTGLVGKYVVAELRAAGHTPVVLARSHGVDLTTGAGLAGKLSGSDAVIDVANIVTTRRKTAVDFFSRTTGHLIAAARAGGVAHLVTLSIVGSDEVDFGYYFGKRAQEELVRDGAVPWTVVRATQFFEFPEPLLNGVSPVVVVPRMLTRPVAAQDVAQTLVEHAVEGPAGMAPEIAGPDQLDMVDMARRIARARGSRRLVVPVTLPGKVGKAMTTGGLLPRGEYLRGRRTFDAHLASLRAA”, “failed”; for “MTQRDTGRLDAIVLAAGRGVRFGGGKLTALLDGDPLVAAALLTAFLAPARRVVVAVGPEPDVRQAVEATATRLLARERLVLVPIDDPSAGMGASLAAAARSLPGDTDGVFVFLGDMPRIDPATPRHLAAALRDPGDIVAPTYLGRRGHPVLFGARWAPVLGALSGDEGARAIVDKAGESLVLVPVDDPGVHLDVDRPSDLARVQTDRRTLLEHHHHHH”, “not failed”. With “MAHATPPSALEQGGPIRVEHDRQRRQFSVRLNGCHDRAVLLYEYVGKRIVDLQHTEVPDAYRGRGIAKHLAKAALDFVVEEDLKAHLTCWYIQKYVKENPLPQYLERLQP”, the protein production result is reported as “failed”. “MAASLSEGVPETEDRKRPQFGNRFLSDPARVFHHNAWDNVKWSEEQAAAAERKVQENSSQLVCPEKQADYEVNAHKYWDDFYKVHENGFFKDRHWLFTEFPELAPSHDHLVNLHLEKQKNEVSKPRSSEDGPGLAAEQHKRPCTSHGCETRVPPVEEPVTQKLTHLEICADDFPGSSATYRILEVGCGVGNTVFPILQTNNNPDLFVYCCDFSATAIELVKTNSEYDPSRCFAFVHDLCDEDQSYPMPKDSLDVIVLIFVLSAIVPDKMQKAISKLSRLLKPGGVMLLRDYGRYDMAQLRFKKGQCLSGNFYVRGDGTRVYFFTQDELDTLFTAAGLEKVQNVVDRRLQVNRGKQLTMYRVWIQCKYSKPLVPSASQHVPTPHTTXVLRIWGFC”: the protein production result is “failed”.

“MKPVIQTFLRAAAVAGLALLAGCAGVSTTQSGAIGVDRTQYMSSLVPEQALVQEAGQQYAEIVQEARAKGLLDRDPAQLSRVRAISQRLIAQTGVFRADAANWPWEVHVLSVDEVNAWCMPGGKIAVYTGLLAHIKPTDDELAAVLGHEIAHALREHARERVSQQMATSIGLSVLSMATGSPGASDLGGKLTEVMFTLPNSRTHETEADRMGVELAARAGFDPRAAVTLWQKMGAADGNAPPEFLSTHPSASTRIGELQQALQKVLPLYEQARGQAAKLEHHHHHH”: the protein production result was “not failed”. For “MVDQSAVGRRFTPVTAHVEAGRLRYFLDTLGETNPVYRDAAAAKVEGFAAPPVPPTYLFCLEMLDNERPFEFLTALEIDLGRVLHGEQSFTYHAPVMVGDTLTFSPQVTSVTDKKGGAMTLIGVATAVTNQHGVHVADTTRTIVVRNGLEHHHHHH” the value was “not failed”. The same measure for “MERLTSPPRLMIVSDLDETMVDHHKDPENLALLRFNSLWEDAYRHDSLLVFSTGRAQTMYKKLRKEKPLLTPDVIITSVGTEIAYGNSMVPDDNWVEILNKKWDRGIVQEETSKFPELTLQGETEQRPHKLSFNIDKSKVKAVTKELSPRLEKRGVDVKFIFSGGNAFDVLAKGGGKGQALAYLLKKLKTEGKLPINTLACGDSGNDTELFTIPNVYGVMVSNAQEELLEWYAENAKDNANIIHASERCAGGITQAIGHFKLGPNLSPRDVSDFLECKADNVNPGHEVVKFFLFYERWRRGEVENCTTYTSSLKASCHPSGVFVHPSGAEKSLRDTIDELGKYYGDKKGKKFRVWTDQVLATDTTPGTWIVKLDKWEQTGDERKCCTTTVKFTSKEGEGFVWEHVQQIWSEETEIKDDSNWII”: “failed”. The same measure for “MVHASVDIEVQFAIAVVKTLILVLGGIVTYLAYSAYQRTGDETLFQLSVGLALVGVGVLLGGFTFELLDVSLGVGVLIESLFVLAGLSVIAYSLKK”: “failed”. Regarding “TDSTGIDLHEFLVNTLKKNPRDRMMLLKLEQEILEFINDNNNQFKKFPQMTSYHRMLLHRVAAYFGMDHNVDQTGKAVIINKTSNTRIPEQRFSEHIKDEKNTEFQQRFIL”, the protein production entry is recorded as “not failed”. For “MRNCIFYSLVLALLFLIGSCKDSDDNKTTGATYDPNQPVTVESFMPVEGKLREKVIVKGSNFGTDKSKVKVYFVDEAAERLSTVIGIDNNTLYCLAPRQLPGGNRIKVIVDGKEVTTDGTFKYEQAQNVSTISGSASKDGNDDGDLASAKFKYMWGIAAVGNNTVLAYQRDDPRVRLISVDDNKVTTVHPGFKGGKPAVTKDKQRVYSIGWEGTHTVYVYMKASGWAPTRIGQLGSTFSGKIGAVALDETEEWLYFVDSNKNFGRFNVKTQEVTLIKQLELSGSLGTNPGPYLIYYFVDSNFYMSDQNLSSVYKITPDGECEWFCGSATQKTVQDGLREEALFAQPNGMTVDEDGNFYIVDGFKGYCLRKLDILDGYVSTVAGQVDVASQIDGTPLEATFNYPYDICYDGEGGYWIAEAWGKAIRKYAVE” the value was “failed”.

In the case of “MSLALQYFKALSDETRLRLIHVLNRHELSVNELVSILEMGQSRVSRHLKILTGAGLLTSRRDGLWVFYSAAAEGDGRAFLDAVTPFVTTDMVLQADLDMAQKIIEERALKTRQFFNAIAEDWDELNREVLGGFDLAGAVAEAMPQCETAVDLGCGTGSVIERMLQRSQQVIGVDGSPRMLELARRRFVEGAERVSLRIGELDHLPLRDGEADFASINMVLHHLSDPGVALGEIRRVLRLGGQLMVTDFDRHDNERMRSDYGDRWLGFEGVQLEGLLREAGFTVRECRRQGVAKGLALHLMLAEKTQQ”, the protein production entry is reported as “failed”. Regarding “MLFIFLTIAALGLSFWAQFKVKSNFEKYSKVEASSGRTGAETARRILDINGLYDVPVEPVRGTLTDHYDPTRRVVRLSEPVYYGRSISAISVASHEVGHALQHQESYGALVLRHKIFPVVNFASGVAPLLFLGGMLLGSLNLIGLGIILFSAAVFFQLITLPVEFNASSRAKQIIVSEGFIRNNEENGVNKVLSAAALTYVAAALVSLFELLRFVMIFLNGRDEN”, the protein production result was “failed”.

Regarding “MKRFPFRPRLLVTVSLVALLLPGCASKPNNLKPSMPEPRLGVASENPGKPKKGKQASSGSQYDTLWERMFSLYALPQVEHRSVEREVSWFINHPDYLKRAQKRAEPFLYTIVRQLEKQKMPGELALLPIVESAFQPHAVSPARAAGIWQFIPETGRRYGLKRSRSYDGRRDVYASTRAAIKYLKKLHNDFNGDWLLAIAAYNCGEGAVAKAIQRNEARNLPTDFWSLDLPDETKAYVPRLLAVSKVFANADKYAIDLHYIPNEAIFKPVKVSSQLDLALAADAADMSLERMLELNPGFKHPHADIEGSYRLFVPADKSRKFKKELARLAMSGQFDSHPPADEGDGSTGFGHRGSLETATEDDAAPGRERSVRKPVVSGYGAEYAVPSRSAERGGPAKDSSRSERWQSVETPSRGGSAVVAHLRDGSRLRDVWGREHGQEDKPLKGNRRPDERLGLSSKANPNRKEGGRKVAGGSALSREEALREERGDRGKEKHAISIPFDERHGGGIKASQSIRHTVKPGETLFAISQRFGVSVADLRKWNGVKENKLEAGRNIRVSAGKD”, the protein production result is “failed”.

For “MDQKSTTCLEALAKLSQQREHQTTPATLCSSEHFFANETIYSDATFLSTTEEAFISSPSSSTQGPKPGLKRVSTGPMTRILEGCQNDKPNSPELERVEEAEDNYSGTSSEEAFSQGIPYPHQVGGHGALSSFERGRVLKPAAKKEIDFYNFIYSDNLPSELEWLRTVTPKYFGQRKTQAKAKRILENQVTPFSQTSSVPVNTVLHIDRKDSERNIWKDQVGELVMDTNPWARACLLKELQKEDEVKSFIILEDLTCHLKKPCVLDCKMGTRHYDDDATEEKKKAHIEKATKTTSSSTGIRFTGMQVYKLPSHTFLFHDKYYGRQLKSHELKNELFEFFHNGVLLRVDIIEQFLSKLQWLYQHLENQHYFNFYSSSLLFVYEGDEMATCPISDVRMIDFAHTQRCVEEQQNDGYLFGLSNLIHLMKSLLEDERNEMR”, the protein production result is given as “failed”. For “MAAAFASLPTFSVVNSSRFPRRRIGFSCSKKPLEVRCSSGNTRYTKQRGAFTSLKECAISLALSVGLMVSVPSIALPPNAHAVANPVIPDVSVLISGPPIKDPEALLRYALPIDNKAIREVQKPLEDITDSLKIAGVKALDSVERNVRQASRTLQQGKSIIVAGFAESKKDHGNEMIEKLEAGMQDMLKIVEDRKRDAVAPKQKEILKYVGGIEEDMVDGFPYEVPEEYRNMPLLKGRASVDMKVKIKDNPNIEDCVFRIVLDGYNAPVTAGNFVDLVERHFYDGMEIQRSDGFVVQTGDPEGPAEGFIDPSTEKTRTVPLEIMVTGEKTPFYGSTLEELGLYKAQVVIPFNAFGTMAMAREEFENDSGSSQVFWLLKESELTPSNSNILDGRYAVFGYVTDNEDFLADLKVGDVIESIQVVSGLENLANPSYKIAG” the value was “failed”; for “MIVVTGATGNIGRPLTRALAEAGEQVTAVSRHPAAVPDGVRHLVADLAEPAGLRPALTGAKSLFLLLSGDLHALGANPADLIGEAARSGVRRVVLLSTLGVVTRPFGATRIAMRELEDTLRESGLEWAVLRPGGFASNALWWAESVRARRVVAAPFGDVGVPVVDPADIAAVAAACLLEDRHTGGAYELTGPEVITPRGQTEAIAAALGAPVAFHELTREEARTAMARSMPAELADDTLDILGNPSPAELRVSPDIERVLGRAPRPFADWAARNADAFR”, “failed”. The same measure for “VIWNQLDARERLERQNDLFRRAQKLANIGAWEYEVSSGEVFWTRQVREIHGLPQGYEPTAEEAIAAYHPEDQPVIQGMIERAVEEEVPFDRELRLGGEALPVGHEQKEGRWVRARGTPQIEAGEVTSVRGTFQDITERKAREHVLENEREALRSMYRITADREAGFEEKARRLIDLGREHLGLPYGFLTRITDETQEIVFASGTHPLLQPGESCPLSRSYCRNTIQEERSLVVQDAVAEGWAGDPAHQTFELGAYVGAQIIVEGELYGTFCFAAEEPREQAFAGRERVFVELMAQWASYELGQRRAKAQLKRQNARLDSFAGLVAHDLRNPLNVATGRLRLAREER”: “failed”.

For “MKTLVDHLSQYANYHRDPRNIATHFVGIPMIVLAVTILLSRPGWEIAGMWLSPALLAAAASVWFYLRLDLRFGLVMGLLLGLCLWVGEALAVQSTTLWLGAGLGAFVVGWIIQFIGHYYEGRKPAFVDDVSGLIIGPLFVVAEAAFMLGLCPTLKRAVEANAGPIAMRQKKASV”, the protein production entry is “failed”.
